The results in this text go back to patent US20230257722.

Holding throughout (test): cell_activity
The test system of data set [1] is TL4412 SMARCA4 right TALE-FokI (synthetic). The note with it: A549, mRNA, pair with pFL.
Data set [2] has as its system TL4412 SMARCA4 right TALE-SEQ1 nuclease (synthetic). The note with it: A549, mRNA, pair with p1L; Table 10 59.7% cleavage.
The subject of data set [3] is TL4412 SMARCA4 right TALE-SEQ2 nuclease (synthetic). The note with it: A549, mRNA, pair with p2L; Table 10 67.6% cleavage.
The subject of data set [4] is TL4412 SMARCA4 right TALE-SEQ4 nuclease (synthetic). The note with it: A549, mRNA, pair with p4L; Table 10 94.5% cleavage.
Data set [5] has as its system TL4412 SMARCA4 right TALE-SEQ5 nuclease (synthetic). The conditions noted are these: A549, mRNA, pair with p5L; no cleavage, binding not measured.
Data set [6] relates to TL4412 SMARCA4 right TALE-SEQ6 nuclease (synthetic). The note with it: A549, mRNA, pair with p6L; Table 10 75.2% cleavage.
For data set [7], the system named is TL4412 SMARCA4 right TALE-SEQ7 nuclease (synthetic). The conditions noted are these: A549, mRNA, pair with p7L; no cleavage, binding not measured.
In data set [8] the test system is TL4412 SMARCA4 right TALE-SEQ8 nuclease (synthetic). The note with it: A549, mRNA, pair with p8L; Table 10 70.4% cleavage.
The test system of data set [9] is TL4409 SMARCA4 left TALE-FokI (synthetic). The note with it: A549, mRNA, pair with pFR.
In data set [10] the test system is TL4409 SMARCA4 left TALE-SEQ1 nuclease (synthetic). The note with it: A549, mRNA, pair with p1R; Table 10 59.7% cleavage.
Data set [11] has as its system TL4409 SMARCA4 left TALE-SEQ2 nuclease (synthetic). The conditions noted are these: A549, mRNA, pair with p2R; Table 10 67.6% cleavage.
The subject of data set [12] is TL4409 SMARCA4 left TALE-SEQ4 nuclease (synthetic). The note with it: A549, mRNA, pair with p4R; Table 10 94.5% cleavage.
The test system of data set [13] is TL4409 SMARCA4 left TALE-SEQ5 nuclease (synthetic). The conditions noted are these: A549, mRNA, pair with p5R; no cleavage, binding not measured.
In data set [14] the test system is TL4409 SMARCA4 left TALE-SEQ6 nuclease (synthetic). The conditions noted are these: A549, mRNA, pair with p6R; Table 10 75.2% cleavage.
For data set [15], the system named is TL4409 SMARCA4 left TALE-SEQ7 nuclease (synthetic). The conditions noted are these: A549, mRNA, pair with p7R; no cleavage, binding not measured.
In data set [16] the test system is TL4409 SMARCA4 left TALE-SEQ8 nuclease (synthetic). The note with it: A549, mRNA, pair with p8R; Table 10 70.4% cleavage.

For “ACTGAGAGAGTGGACAAGC (double strand) [SMARCA4 right half-site (top strand)]”, the activity in data set [1] came out at 74 % indels; in data set [2], 42 % indels; in data set [3], 8 % indels; in data set [4], 87 % indels; in data set [5], 0 % indels; in [6], 1 % indels. The activity in [7] worked out at 0 % indels; in data set [8], 38 % indels.

On to “GGCGTGTCCCAGGCCCTTGC (double strand) [SMARCA4 left half-site]”, for which the activity in [9] was found to be 74 % indels; in [10] it was 42 % indels; in data set [11], 8 % indels; in [12] it was 87 % indels; in data set [13] it was 0 % indels; in [14] it was 1 % indels. Further, the activity was found to be 0 % indels in data set [15] and 38 % indels in data set [16].
